B1: CAMK2D (parent)
chain: LLKHPNIVRLHDSISEEGFHYLVF

Variants of: B1
Experiment: protein stability index of a GFP-peptide fusion (GPS, HEK-293T) (PSI 1-6); higher = more stable
Conditions: c terminus: a fixed tail appended
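Further: lentivirally expressed fusions sorted by FACS into six bins by GFP to DsRed ratio, PSI derived from sequencing read proportions per bin multiplied by bin number.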

Compared with LLKHPNIVRLHDSISEEGRHYLVF [F19R], LLKHPNIVRLHDSISEEGKHYLVF [F19K] is higher in protein stability index: 2.02 for the first, 3.11 for the second.

Compared with LLKHPNIVRLHDSHSEEGFHYLVF [I14H], LLKHPNIVRLHDSGSEEGFHYLVF [I14G] is higher in protein stability index: 1.11 for the first, 1.64 for the second.

Going from LLKHPNIVRLHDSESEEGFHYLVF [I14E] to LLKHPNIVRLHDSQSEEGFHYLVF [I14Q], the protein stability index falls from 2.8 to 1.78.

Compared with LLKHPNIVRLHDSSSEEGFHYLVF [I14S], LLKHPNIVRLHDSWSEEGFHYLVF [I14W] is lower in protein stability index: 2.15 for the first, 1.4 for the second.

Going from LLKHPNIVRLHDSPSEEGFHYLVF [I14P] to LLKIPNIVRLHDSISEEGFHYLVF [H4I], the protein stability index falls from 2.74 to 2.28.

Compared with LLKRPNIVRLHDSISEEGFHYLVF [H4R], LLKCPNIVRLHDSISEEGFHYLVF [H4C] is lower in protein stability index: 2.6 for the first, 1.66 for the second.

Compared with LLKYPNIVRLHDSISEEGFHYLVF [H4Y], LLKVPNIVRLHDSISEEGFHYLVF [H4V] is lower in protein stability index: 2.32 for the first, 1.58 for the second.

First: LLKLPNIVRLHDSISEEGFHYLVF [H4L]
Second: LLKMPNIVRLHDSISEEGFHYLVF [H4M]
The protein stability index of the first is lower: 2.79 for the first, 3.37 for the second.

First: LLKTPNIVRLHDSISEEGFHYLVF [H4T]
Second: LLKHPNIVRLHQSISEEGFHYLVF [D12Q]
The protein stability index of the first is higher: 1.84 for the first, 1.31 for the second.

First: LLKHPNIVRLHHSISEEGFHYLVF [D12H]
Second: LLKHPNIVRLHSSISEEGFHYLVF [D12S]
The protein stability index of the first is higher: 3.02 for the first, 3 for the second.

First: LLKHPNIVRLHPSISEEGFHYLVF [D12P]
Second: LLKHPNIVGLHDSISEEGFHYLVF [R9G]
The protein stability index of the first is higher: 2.38 for the first, 1.79 for the second.

First: LLKHPNIVYLHDSISEEGFHYLVF [R9Y]
Second: LLKHPNIVSLHDSISEEGFHYLVF [R9S]
The protein stability index of the first is higher: 2.87 for the first, 2.58 for the second.

First: LLKHPNIVWLHDSISEEGFHYLVF [R9W]
Second: LLKHPNIVNLHDSISEEGFHYLVF [R9N]
The protein stability index of the first is lower: 2.69 for the first, 2.7 for the second.

Going from LLKHPNIVTLHDSISEEGFHYLVF [R9T] to LLKHPNIVELHDSISEEGFHYLVF [R9E], the protein stability index rises from 1.68 to 3.23.

First: LLMHPNIVRLHDSISEEGFHYLVF [K3M]
Second: LLFHPNIVRLHDSISEEGFHYLVF [K3F]
The protein stability index of the first is lower: 1.77 for the first, 2.85 for the second.

First: LLIHPNIVRLHDSISEEGFHYLVF [K3I]
Second: LLLHPNIVRLHDSISEEGFHYLVF [K3L]
The protein stability index of the first is lower: 2.71 for the first, 3.21 for the second.

First: LLKHPNIVRLHDSISEELFHYLVF [G18L]
Second: LLKHPNIVRLHDSISEEAFHYLVF [G18A]
The protein stability index of the first is higher: 3.43 for the first, 3.26 for the second.

First: LLKHPNIVRLHDSISEEPFHYLVF [G18P]
Second: LLKHPNIVRLHDSISEEFFHYLVF [G18F]
The protein stability index of the first is lower: 2.03 for the first, 2.73 for the second.

Compared with LLKHPNIVRLHDSISEETFHYLVF [G18T], LLKHPNIVRLHDSISEECFHYLVF [G18C] is higher in protein stability index: 1.87 for the first, 1.98 for the second.

Compared with LLKHPNIVRLHDSISEENFHYLVF [G18N], LLKHPNIVRLEDSISEEGFHYLVF [H11E] is higher in protein stability index: 1.5 for the first, 2.68 for the second.

Compared with LLKHPNIVRLYDSISEEGFHYLVF [H11Y], LLKHPNIVRLSDSISEEGFHYLVF [H11S] is lower in protein stability index: 2.88 for the first, 1.8 for the second.

First: LLKHPNIVRLRDSISEEGFHYLVF [H11R]
Second: LLKHPNIVRLVDSISEEGFHYLVF [H11V]
The protein stability index of the first is higher: 2.79 for the first, 1.9 for the second.

First: LLKHPNIVRLNDSISEEGFHYLVF [H11N]
Second: LLKHPNIERLHDSISEEGFHYLVF [V8E]
The protein stability index of the first is higher: 2.29 for the first, 2.17 for the second.

Going from LLKHPNIWRLHDSISEEGFHYLVF [V8W] to LLKHPNIPRLHDSISEEGFHYLVF [V8P], the protein stability index falls from 3.27 to 2.01.

Going from LLKHPNIIRLHDSISEEGFHYLVF [V8I] to ELKHPNIVRLHDSISEEGFHYLVF [L1E], the protein stability index rises from 1.87 to 2.23.

Compared with KLKHPNIVRLHDSISEEGFHYLVF [L1K], DLKHPNIVRLHDSISEEGFHYLVF [L1D] is higher in protein stability index: 3.1 for the first, 4.59 for the second.

Going from QLKHPNIVRLHDSISEEGFHYLVF [L1Q] to NLKHPNIVRLHDSISEEGFHYLVF [L1N], the protein stability index rises from 1.77 to 2.14.

First: CLKHPNIVRLHDSISEEGFHYLVF [L1C]
Second: PLKHPNIVRLHDSISEEGFHYLVF [L1P]
The protein stability index of the first is higher: 1.97 for the first, 1.76 for the second.

Going from FLKHPNIVRLHDSISEEGFHYLVF [L1F] to LLKHGNIVRLHDSISEEGFHYLVF [P5G], the protein stability index falls from 2.89 to 1.76.

First: LLKHSNIVRLHDSISEEGFHYLVF [P5S]
Second: LLKHFNIVRLHDSISEEGFHYLVF [P5F]
The protein stability index of the first is higher: 2.59 for the first, 2.26 for the second.

First: LLKHDNIVRLHDSISEEGFHYLVF [P5D]
Second: LLKHQNIVRLHDSISEEGFHYLVF [P5Q]
The protein stability index of the first is lower: 1.97 for the first, 2.6 for the second.

Compared with LLKHVNIVRLHDSISEEGFHYLVF [P5V], LLKHANIVRLHDSISEEGFHYLVF [P5A] is lower in protein stability index: 2.56 for the first, 2.2 for the second.

Compared with LLKHTNIVRLHDSISEEGFHYLVF [P5T], LLKHYNIVRLHDSISEEGFHYLVF [P5Y] is lower in protein stability index: 2.59 for the first, 1.57 for the second.

Going from LLKHWNIVRLHDSISEEGFHYLVF [P5W] to LLKHPNIVRDHDSISEEGFHYLVF [L10D], the protein stability index falls from 2.57 to 1.74.

Going from LLKHPNIVRKHDSISEEGFHYLVF [L10K] to LLKHPNIVRPHDSISEEGFHYLVF [L10P], the protein stability index rises from 2.02 to 2.49.

Going from LLKHPNIVRFHDSISEEGFHYLVF [L10F] to LLKHPNIVRTHDSISEEGFHYLVF [L10T], the protein stability index falls from 3.99 to 1.43.

LLKHPNIVRLHDSISVEGFHYLVF [E16V] and LLKHPNIVRLHDSISTEGFHYLVF [E16T] are the same in protein stability index: 1.39 for the first, 1.39 for the second.

First: LLKHPNIVRLHDSISPEGFHYLVF [E16P]
Second: LLKHPNIVRLHDSISSEGFHYLVF [E16S]
The protein stability index of the first is higher: 1.62 for the first, 1.19 for the second.

Compared with LLKHPNIVRLHDSISDEGFHYLVF [E16D], LLKHPNIVRLHDSISNEGFHYLVF [E16N] is higher in protein stability index: 1.67 for the first, 2.87 for the second.

Going from LPKHPNIVRLHDSISEEGFHYLVF [L2P] to LMKHPNIVRLHDSISEEGFHYLVF [L2M], the protein stability index rises from 1.56 to 1.77.

First: LSKHPNIVRLHDSISEEGFHYLVF [L2S]
Second: LTKHPNIVRLHDSISEEGFHYLVF [L2T]
The protein stability index of the first is lower: 1.56 for the first, 1.94 for the second.

First: LNKHPNIVRLHDSISEEGFHYLVF [L2N]
Second: LEKHPNIVRLHDSISEEGFHYLVF [L2E]
The protein stability index of the first is higher: 3.63 for the first, 2.04 for the second.

Going from LLKHPEIVRLHDSISEEGFHYLVF [N6E] to LLKHPCIVRLHDSISEEGFHYLVF [N6C], the protein stability index falls from 3.7 to 2.13.

Compared with LLKHPAIVRLHDSISEEGFHYLVF [N6A], LLKHPRIVRLHDSISEEGFHYLVF [N6R] is higher in protein stability index: 2.22 for the first, 2.54 for the second.

LLKHPNIVRLHDSISEEGFPYLVF [H20P] and LLKHPNIVRLHDSISEEGFRYLVF [H20R] are the same in protein stability index: 2.08 for the first, 2.08 for the second.

Going from LLKHPNIVRLHDSISEEGFSYLVF [H20S] to LLKHPNIVRLHDSISEEGFLYLVF [H20L], the protein stability index falls from 2.75 to 2.31.

Compared with LLKHPNIVRLHDSISEEGFEYLVF [H20E], LLKHPNIVRLHDSISEEGFVYLVF [H20V] is higher in protein stability index: 3.1 for the first, 3.17 for the second.

— the supplement of paper PMC10567573
